Laboratory results from patent US7745587 (DYAX, dated 2010).

B1: M0037-D01 IgG (antibody, V domains shown)
VH: EVQLLESGGGLVQPGGSLRLSCAASGFTFSMYMMIWVRQAPGKGLEWVSSIYPSGGNTMYADSVKGRFTISRDNSKNTLYLQMNSLRAEDTAVYYCATGVLRYFDWDAGSGMDVWGQGTTVTVSS
VL: DIQMTQSPSSLSASVGDRVTITCRASQGIRNDLGWYQQKPGKAPKRLIYVASSLQSGVPSRFSGSGSGTEFTLTISSLQPEDFATYYCLQHNSYPWTFGQGTKVEIK
notes: IgG of the Fab
B2: M0033-H07 IgG (antibody, V domains shown)
VH: EVQLLESGGGLVQPGGSLRLSCAASGFTFSVYGMVWVRQAPGKGLEWVSVISSSGGSTWYADSVKGRFTISRDNSKNTLYLQMNSLRAEDTALYYCARPFSRRYGVFDYWGQGTLVTVSS
VL: DIQMTQSPSSLSASVGDRVTITCRASQGIRNFLAWYQQKPGKVPKLLVFGASALQSGVPSRFSGSGSGTDFTLTISGLQPEDVATYYCQKYNGVPLTFGGGTKVEIK
notes: IgG of the Fab
B3: M0043-G02 IgG (antibody, V domains shown)
VH: EVQLLESGGGLVQPGGSLRLSCAASGFTFSWYPMFWVRQAPGKGLEWVSGIYSSGGPTDYADSVKGRFTISRDNSKNTLYLQMNSLRAEDTAVYYCAKDTLGRYYDFWSGYSYGMDVWGQGTTVTVSS
VL: DIQMTQSPGTLSLSPGERATLSCRASQSVSSSYLAWYQQKPGQAPRLLIYGASSRATGIPDRFSGSGSGTDFTLTISRLEPEDFAVYYCQSGVTFGGGTKVEIK
notes: IgG of the Fab
B4: M0037-C09 IgG (antibody, V domains shown)
VH: EVQLLESGGGLVQPGGSLRLSCAASGFTFSHYEMFWVRQAPGKGLEWVSSISPSGGQTHYADSVKGRFTISRDNSKNTLYLQMNSLRAEDTAVYYCATDRTYYDFWSGYGPLWYWGQGTLVTVSS
VL: DIQMTQSPLSLPVTLGESASVSCRSSQSLLHENGHNYLDWYLQKPGQSPQLLIYLGSNRASGVPDRFSGSGSGTDFTLKISRVEAEDVGVYYCMQSLKTPPTFGPGTKVEIK
notes: IgG of the Fab; also called M037-C09
B5: M0038-F01 IgG (antibody, V domains shown)
VH: EVQLLESGGGLVQPGGSLRLSCAASGFTFSLYSMNWVRQAPGKGLEWVSSIYSSGGSTLYADSVKGRFTISRDNSKNTLYLQMNSLRAEDTAVYYCARGRAFDIWGQGTMVTVSS
VL: DIQMTQSPSSLSAFVGDKVTITCRASQSVGTYLNWYQQKAGKAPELLIYATSNLRSGVPSRFSGSGSGTDFTLTINTLQPEDFATYYCQQSYSIPRFTFGPGTKVDIK
notes: IgG of the Fab
B6: M0038-F01 germline (antibody, human IgG1, kappa, V domains shown)
VH: EVQLLESGGGLVQPGGSLRLSCAASGFTFSLYSMNWVRQAPGKGLEWVSSIYSSGGSTLYADSVKGRFTISRDNSKNTLYLQMNSLRAEDTAVYYCARGRAFDIWGQGTMVTVSS
VL: DIQMTQSPSSLSASVGDRVTITCRASQSVGTYLNWYQQKPGKAPKLLIYATSNLRSGVPSRFSGSGSGTDFTLTISSLQPEDFATYYCQQSYSIPRFTFGPGTKVDIKR
notes: Full chains; the ranges 20-464 and 20-234 come from claims 16, 18 and 20

Legend:
human MMP-14 [1] = target: T1, human MMP-14 (human, UniProt P50281 112-541, limits assumed); test: enzymatic assay, IgG, 2 nM MMP-14, peptide substrate at 10, 14, 18 µM; highest Ki measured
T1 construct: Soluble MMP-14 used in selection, ELISA (biotinylated) and enzymatic assays; also called hMMP-14; bhMMP-14 (biotinylated human MMP-14)
Protocol: (§1) K_i studies were performed using an enzymatic assay at substrate [Mca-Pro-Leu-Ala-Cys(Mob)-Trp-Ala-Arg-Dap(Dnp)-NH_2] concentrations of 10 μM, 14 μM and 18 μM. […] The concentration of MMP-14 was 2 nM.

human MMP-14 [2] = target: T1, human MMP-14; test: enzymatic inhibition assay, 2 nM MMP-14, 18 uM substrate Mca-Pro-Leu-Ala-Cys(Mob)-Trp-Ala-Arg-Dap(Dnp)-NH2; rate against [IgG] 0-50 nM
Protocol: as §1

human MMP-14 [3] = target: T1, human MMP-14; test: cell-based or functional assay
human MMP-14 [4] = target: T1, human MMP-14; test: enzymatic inhibition assay, 2 nM MMP-14, 14 uM substrate Mca-Pro-Leu-Ala-Cys(Mob)-Trp-Ala-Arg-Dap(Dnp)-NH2; rate against [IgG] 0-50 nM
Protocol: as §1

human MMP-14 [5] = target: T1, human MMP-14; test: enzymatic inhibition assay, 2 nM MMP-14, 10 uM substrate Mca-Pro-Leu-Ala-Cys(Mob)-Trp-Ala-Arg-Dap(Dnp)-NH2; rate against [IgG] 0-50 nM
Protocol: as §1

human MMP-14 [6] = target: T1, human MMP-14; test: enzymatic inhibition assay against 2 pM hMMP-14; rate (dF/min) against [I] 0-100 nM; value taken from the line under the panel marked Parental, not from its inset table
human MMP-14 [7] = target: T1, human MMP-14; test: enzymatic inhibition assay against 2 pM hMMP-14; rate (dF/min) against [I] 0-100 nM
[8] = target: mouse MMP-14 in arthritic knee joints of C57Bl6 mice (mouse, UniProt P53690 112-582); test: immunohistochemistry of mouse joints, acute SCW-induced arthritis
human MMP-14 [9] = target: T1, human MMP-14; test: enzymatic inhibition assay against 2 pM hMMP-14; rate (dF/min) against [I] 0-50 nM

Row | Binder | Ki (human MMP-14 [1]) | Ki (human MMP-14 [2]) | IC50 of MMP-14 inhibition (MMP-14 at 2 pM), IgG (human MMP-14 [3]) | Ki (human MMP-14 [4]) | Ki (human MMP-14 [5]) | IC50 (human MMP-14 [6]) | IC50 (human MMP-14 [7]) | binding result [8] | IC50 (human MMP-14 [9])
1 | B1 | 2.9 nM | 2 nM | 1.7 nM | 1.7 nM | – | – | – | – | –
2 | B2 | 4 nM | – | 5.1 nM | 2.7 nM | 3.3 nM | 12.2 nM | – | – | –
3 | B3 | 1.2 nM | 1.1 nM | 0.3 nM | – | 0.7 nM | – | – | – | –
4 | B4 | 8.6 nM | – | 4.2 nM | 6.3 nM | 7.2 nM | – | – | – | –
5 | B5 | 1.2 nM | – | 2 nM | 0.9 nM | 0.6 nM | – | 8.3 nM | binds | –
6 | B6 | – | – | – | – | – | – | – | – | 5.13 nM
